Measured values reported in patent US20210079109A1 (Regeneron, published 2021).

T1: human CD63 (human, UniProt P08962 2-238)
T1 construct: stably transfected in NIH3T3/hCD63; The cell line is named under assay; also called hCD63
T1 sequence: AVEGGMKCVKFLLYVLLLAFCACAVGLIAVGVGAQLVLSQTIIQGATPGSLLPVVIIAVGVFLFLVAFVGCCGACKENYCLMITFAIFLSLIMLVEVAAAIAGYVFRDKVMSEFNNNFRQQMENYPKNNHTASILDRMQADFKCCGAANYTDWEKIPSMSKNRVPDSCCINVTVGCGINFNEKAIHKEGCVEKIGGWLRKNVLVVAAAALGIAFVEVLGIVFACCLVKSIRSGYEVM


Assays:
[1] = target: T2, recombinant human CD63 extracellular loop 2 expressed with a C-terminal human Fc tag (human); assay: SPR Biacore, mAb captured, 37C
T2 construct: also called hCD63 EC loop 2-hFc; human CD63 EC loop 2-Fc
T2 sequence (chain, as listed by the source limits assumed): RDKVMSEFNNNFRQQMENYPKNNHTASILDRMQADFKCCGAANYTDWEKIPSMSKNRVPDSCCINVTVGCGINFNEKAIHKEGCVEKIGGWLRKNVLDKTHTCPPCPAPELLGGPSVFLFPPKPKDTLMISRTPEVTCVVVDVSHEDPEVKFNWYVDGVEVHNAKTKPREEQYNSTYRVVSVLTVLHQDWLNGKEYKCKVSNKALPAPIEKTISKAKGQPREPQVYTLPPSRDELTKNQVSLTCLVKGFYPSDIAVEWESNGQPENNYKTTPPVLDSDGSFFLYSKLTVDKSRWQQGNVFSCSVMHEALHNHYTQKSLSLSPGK
Procedure, shortened: (§1)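 Anti-CD63 mAbs captured on anti-mouse Fc or anti-human Fab surfaces; CD63 EC2 reagents flowed in HBS-ET, pH 7.4, at 25° C or 37° C. ka and kd from 1:1 binding model with mass transport limitation; KD and t½ calculated from kinetic rates.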

[2] = target: T3, recombinant human CD63 extracellular loop 2 expressed with a C-terminal Myc-Myc-hexahistidine (human); assay: SPR Biacore, mAb captured, 37C
T3 construct: also called hCD63 EC loop 2-MMH; human CD63 EC loop 2-MMH
T3 sequence (chain, as listed by the source limits assumed): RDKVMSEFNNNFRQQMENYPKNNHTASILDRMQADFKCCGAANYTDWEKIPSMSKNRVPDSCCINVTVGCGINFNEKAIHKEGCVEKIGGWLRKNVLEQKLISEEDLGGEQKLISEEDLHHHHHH
Procedure, shortened: as §1

[3] = target: T1, human CD63; assay: imaging of stained T47D cells, 10 ug/mL antibody
Description: To stain, quadruplicate plates of cells were incubated with 10 μg/mL of anti-CD63 antibodies that was diluted in 2% FBS in PBS, without Calcium and Magnesium (Irving, Cat #9240) (staining buffer) for 30 minutes at 4° C. […] Two plates were immediately fixed and stained with 4% paraformaldehyde (PFA; ThermoFisher, Cat #28908)+5 uM DRAQ5 (ThermoFisher, Cat #62251) in PBS for 20 minutes (non-internalization plates). The remaining two plates were incubated with growth media at 37° C. for 2 hours followed by fixation and staining for 20 minutes using a solution of 4% PFA+5 μM DRAQ5 diluted in PBS (internalization plates). After fixation, all plates were washed once with PBS. One non-internalization plate and one internalization plate were incubated with an anti-Alexa Fluor 488 antibody (Regeneron) at 50 μg/mL in PBS overnight at 4° C. to quench surface Alexa Fluor 488 fluorescence. The remaining plates were incubated with PBS only. Confocal images were acquired on the Opera Phenix (Perkin Elmer) at 40× magnification. Harmony analysis software (Perkin Elmer) was utilized to identify DRAQ5-labeled cells and the total Alexa-Fluor 488 relative fluorescent units (RFU) per cell was determined. The total binding at 4° C. (RFU values of 4° C. unquenched wells), total binding at 37° C. (RFU values of 37° C. unquenched wells), the total internalized RFU, and the % Internalization were determined for each antibody as shown in Table 1. For all calculations, background fluorescence from 2nd Ab only control wells were subtracted from every well. Total internalized RFU was calculated as follows: Total RFU of 37° C. unquenched samples−Surface RFU at 37° C. Surface RFU is defined as unquenched RFU at 37° C.−quenched RFU at 37° C.)/QE. QE (quenching efficiency) is defined as: 1−(Total RFU of 4° C. quenched sample/Total RFU of 4° C. unquenched sample). The % Internalization was determined from the following formula: (Total internalized RFU at 37° C./Total RFU at 37° C.)*100.

[4] = target: T1, human CD63; assay: cell-based or functional assay
[5] = target: T1, human CD63; assay: ECL, U87MG cells
Procedure, shortened: (§2)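 Detached cells (~2.0×10⁴/well: NIH3T3/hCD63, LNCAP, U87MG, or parental NIH3T3 as negative control) were plated on carbon-electrode plates and blocked with 2% BSA. Anti-CD63 or isotype antibodies (1.7 pM–100 nM, in duplicate) were bound 1 h at RT, then washed. Signal read as electrochemiluminescence.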

[6] = target: T1, human CD63; assay: ECL, LNCAP cells
Procedure, shortened: as §2

| 100 nM Ag Bound (RU) [1] [RU] | Kd [1] [nM] | koff [1] [s⁻¹] | kon [1] [M⁻¹ s⁻¹] | t1/2 [1] [min] | 100 nM Ag Bound (RU) [2] [RU] | Kd [2] [nM] | koff [2] [s⁻¹] | kon [2] [M⁻¹ s⁻¹] | t1/2 [2] [min] | Total RFU at 4C [3] [RFU] | Total RFU at 37C (2 h) [3] [RFU] | % Internalization, T47D cells [4] [%] | Total Internalized RFU, T47D cells [4] [RFU] | EC50 [5] [nM] | binding ratio at 3.7 nM vs NIH3T3 [5] [fold] | EC50 [6] [nM] | binding ratio at 3.7 nM vs NIH3T3 [6] [fold] | Binder |
| --- | --- | --- | --- | --- | --- | --- | --- | --- | --- | --- | --- | --- | --- | --- | --- | --- | --- | --- |
| 138 | 0.119 | 4.89e-05 | 411000 | 236 | 58 | 1.15 | 0.000201 | 175000 | 57 | 2.36e+06 | 2.94e+06 | 60.9 | 1.79e+06 | 1.4 | 272 | 1.4 | 20 | H2M12450N (antibody, V domains shown, also called H2aM12450N; mAb12450) VH: QVQLQESGPKVVKPSETLSLTCTVSGGSISSYYWNWIRQSPGKGLEWIGYTKRGYTDYNPSLRSRVTISEDTSKNQFSLRISSVTAADTAVYYCAQMGWGSHAFDMWGQGTMVAVSS VL: EIVLTQSPGTLSLSPGERATLSCRASQSVNSRYLAWYQQKPGQAPRLLIYGASSRATGIPDRCSGSGSGTDFTLTISRLEPEDFAVYYCQQYGSSPWTFGQGTKVEIK |
| 123 | 3.38 | 0.00179 | 529000 | 6 | 31 | 56.4 | 0.00932 | 165000 | 1 | 1.5e+06 | 1.69e+06 | 73.2 | 1.24e+06 | 0.95 | 52 | 1.7 | 7 | H2M12395N (antibody, V domains shown, also called H2aM12395N) VH: QVQLQESGPRLVKPSETLSLTCIVSGGSISNFYWNWIRQSPGKGLEWIGYFFYTGTIDYNPSLKSRVTISLDTSKNQFSLNLRLLTAADAAVYYCARMGLGANAFDIWGHGTMVTVSS VL: EIVLTQSPGTLSLSPGERATLSCRASQHVSSNYLAWYQQKPGQAPRLLIYGGSSRATGIPDRFSGSGSGTDFTLTISRLEPADFAVFYCQQYGNSPWTFGQGTKVEMK |
| 118 | 0.509 | 0.000331 | 651000 | 35 | 44 | 21.4 | 0.0019 | 88900 | 6 | 1.9e+06 | 2.32e+06 | 73.7 | 1.71e+06 | 0.79 | 171 | 0.35 | 18 | H1M12451N (antibody, V domains shown) VH: QVQLQESGPGLMKPSETLSLTCTVSGGSFSSYYWNWIRQSPGKGLEWIGYIRYSGDTNYKPSLKSRFTISIDTSKNLFSLRLKSVTAADTAVYYCARMGLGSDAFDIWGQGTMVTVSS VL: EIVLTQSPGTLSLSPGERATLSCRASQSVNNNYLAWYQQKPGQAPRLLIYGVFNRATNIPDRFSGSGSGTDFTLTISRLEPEDFAVYYCQQYGSSPWTFGQGTKVEIK |
